Source: patent publication US20200339680A1 (Alector, published 2020)

What was measured:
[1] = molecular target: T1, human TMEM106B (human, UniProt Q9NUM4 2-274); test: FACS HEK+huTMEM 1.0 ug/ml;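 note: binding of purified mouse IgG antibodies to HEK293 cells transiently expressing human TMEM106B, read by flow cytometry as median fluorescence intensity of live, propidium iodide-negative cells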
T1 construct: full-length, transiently expressed on HEK293 cells, or natively expressed on HeLa, U251 and A549 cells (the cell is named under assay); also the source of the Pepscan peptides; also called huTMEM106B; huTMEM

[2] = molecular target: T2, GST Fusion human TMEM106B ECD (Truncated) (human); test: SPR array; SPR kinetics, Table 5, second of two listed runs (KD 2.90E-08 M)
T2 construct: also called GST-TMEM106B-truncated protein; GST-TMEM106B (truncated)
Procedure: (§1) Binding kinetic characterization of the purified antibodies was performed by Carterra using a proprietary array SPR instrument (MX-96) as follows. Briefly, antibodies were prepared by diluting to 5 μg/ml in 10 mM Acetate, pH 4.5 (Carterra), at 150 μL/well and then made an additional dilution at 1:10 from there by titrating 11 μL into 100 μL. […] The chip was activated with 18 mM EDC (Sigma Bioxtra) and 4.5 mM S—NHS (Thermo Fisher) diluted in 100 mM MES, pH 5.5, for 7 minutes, and then antibodies were coupled for 10 minutes at 45 μL/minute. After coupling, the chip was returned to the MX-96 and quenched for 7 minutes using 1 M Ethanolamine pH 8.5 (Carterra).
(§2) Printed antibodies were profiled for their ability to bind GST-TMEM106B (truncated) protein (described above). Briefly, GST-TMEM106B (truncated) antigen was diluted to 18 μg/ml (500 nM of 36 kDa fusion protein) by mixing 2.7 μL of 2.0 mg/ml antigen into 298 μL Running buffer (HBS-EP+, Teknova with 1 mg/ml BSA, Sigma), and titrated 50 μl into 200 μl for 5-fold serial dilutions. […] Duplicate measurements for each anti-TMEM106B antibody were taken to ensure reproducibility.

[3] = molecular target: T2, GST Fusion human TMEM106B ECD …; test: SPR array; SPR kinetics, Table 5, first of two listed runs
Procedure: as §1, §2

[4] = molecular target: T1, human TMEM106B; test: FACS HEK+huTMEM 0.1 ug/ml;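 note: flow cytometry binding of purified mouse IgG antibodies to HEK293 cells transiently expressing TMEM106B, read as median fluorescence intensity on live cells (propidium iodide negative gating)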
[5] = molecular target: T1, human TMEM106B; test: FACS A549 1 ug/ml
Procedure: (§3) Purified anti-TMEM106B antibodies were evaluated for their binding affinity to various TMEM106B-expressing cell lines including HEK293 transiently transfected with human/cyno/mouse TMEM106B, as well as HeLa cells and A549 cells. Antibodies tested for this experiment were mouse IgGs purified from hybridoma supernatant. Affinity binding to cells was determined as follows. Briefly, 1×10\hat{ }5 cells were aliquoted per well in 96-well round bottom plates and incubated with 50 μL of purified anti-TMEM106B antibody at various concentrations (10× dilutions starting at 10 μg/ml) in FACS buffer (PBS+2% FBS+1 mM EDTA). […] Sorting was performed on a iQue (Intellicyt), with sort gates drawn to exclude dead (propidium iodide+) cells. Binding data was analyzed using median fluorescent intensity (MFI) and graphed in Prism. Values presented are MFI.

[6] = molecular target: T1, human TMEM106B; test: FACS U251
Procedure: (§4) All cells were cultured in either T75 or T150 flasks. […] The enzyme was quenched by addition of fresh media, and the cells were then distributed into 96-well plates for FACS analysis.
(§5) FACS analysis was performed as follows. Each cell type was aliquoted in 96-well round bottom plates (2×10^5 cells per well), washed once with FACS buffer (PBS+2% FBS+1 mM EDTA), and incubated with 50 μL of hybridoma supernatant or purified antibody (10 μg/ml in FACS buffer) on ice for 1 hour. […] Following this secondary incubation, the cells were again washed 2× with ice-cold FACS buffer and resuspended in a final volume of 50 μL of FACS buffer+0.25 μl/well propidium iodide (Fisher Scientific #4BDB556463). Analysis was performed on a FACSCanto system (BD Biosciences) or iQue (Intellicyt), with sort gates drawn to exclude dead (i.e., propidium iodide positive) cells.

[7] = molecular target: T1, human TMEM106B; test: FACS HEK+huTMEM 0.1 ug/ml (2nd column so headed);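 note: flow cytometry binding of purified anti-TMEM106B mouse IgG to HEK293 cells transiently transfected with TMEM106B, read as median fluorescence intensity on live (propidium iodide-negative) cells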
Procedure: as §3

[8] = molecular target: T1, human TMEM106B; test: FACS HEK+huTMEM 10 ug/ml;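 note: flow cytometric binding of purified mouse IgG antibodies to HEK293 cells transiently expressing human TMEM106B, read as median fluorescence intensity on live cells with propidium iodide-positive cells excluded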
Procedure: as §3

[9] = molecular target: T3, mouse TMEM106B (mouse, UniProt Q80X71 2-275); test: FACS Neuro2a;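 note: flow cytometry of antibody binding to cells: hybridoma supernatant or purified antibody at 10 µg/ml, 1 h on ice, secondary detection, propidium iodide–positive dead cells gated out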
T3 construct: transiently expressed on HEK293 cells, or native on mouse Neuro2a cells; also called moTMEM106B; murine TMEM106B
Procedure: as §4, §5

[10] = molecular target: T2, GST Fusion human TMEM106B ECD …; test: SPR array; SPR kinetics, Table 5, first of two listed runs (KD 4.70E-07 M)
Procedure: as §1, §2

[11] = molecular target: T1, human TMEM106B; test: FACS HeLa
Procedure: as §4, §5

[12] = molecular target: T2, GST Fusion human TMEM106B ECD …; test: SPR array; SPR kinetics, Table 5, first of two listed runs; weak binder
Procedure: as §1, §2

[13] = molecular target: T2, GST Fusion human TMEM106B ECD …; test: SPR array; SPR kinetics, Table 5, second of two listed runs
Procedure: as §1
Printed antibodies were profiled for their ability to bind GST-TMEM106B (truncated) protein (described above). Briefly, GST-TMEM106B (truncated) antigen was diluted to 18 μg/ml (500 nM of 36 kDa fusion protein) by mixing 2.7 μL of 2.0 mg/ml antigen into 298 μL Running buffer (HBS-EP+, Teknova with 1 mg/ml BSA, Sigma), and titrated 50 μl into 200 μl for 5-fold serial dilutions. In addition, binding to GST (Pierce) was assayed under the same conditions to determine the extent of any non-specific binding of the anti-TMEM106B antibodies to GST portion of the TMEM106B-GST fusion protein. Duplicate measurements for each anti-TMEM106B antibody were taken to ensure reproducibility.

[14] = molecular target: T1, human TMEM106B; test: FACS A549;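 note: flow cytometry of cells incubated on ice for 1 h with hybridoma supernatant or purified antibody at 10 µg/mL, dead propidium iodide-positive cells gated out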
[15] = molecular target: T2, GST Fusion human TMEM106B ECD …; test: SPR array
Procedure: as §1, §2

[16] = molecular target: T1, human TMEM106B; test: FACS A549 10 ug/ml

Row | Binder | MFI [1] | kon [2] | koff [3] | MFI [4] | MFI [5] | MFI [6] | MFI [7] | MFI [8] | MFI [9] | kon [10] | MFI [11] | Kd [12] | koff [13] | MFI [14] | Kd [15] | MFI [16]
1 | TM-16 (antibody, V domains shown) VH: EVQLQQSGAELVRPGASVKLSCTTSGFNIKDYYMHWVKQRTEQGLEWIGRIDPEDGETKYAPEFQGKATITSDTSSNTAFLQLSSLTSEDTAVYYCASSQPFTYWGQGTLVTVSA VL: QIVLTQSPAIMSASPGEKLTMTCSASSSLNYMYWYQQKPGSSPRLLIYDTSNLASGVPVRFSGSGSGTSYSLTISRMEAEDGATYYCQQWTSFPPTFGAGTKLELK | 2140 MFI | 33000 M⁻¹ s⁻¹ | 0.0031 s⁻¹ | 680 MFI | 409 MFI | 292 MFI | 351 MFI | 5980 MFI | 392 MFI | 6500 M⁻¹ s⁻¹ | 548 MFI | 470 nM | 0.00095 s⁻¹ | 605 MFI | 29 nM | 557 MFI
2 | TM-52 (antibody, V domains shown, mouse IgG (hybridoma)) VH: QVQLQQPGAELVKPGASVKLSCKASGYTFTNYWMHWVKQRPGQGLDWIGNIDPSDSETHYNQKFKDKATLTVDKVSSTAYMQLSSLTSEDSAVYYCARRGYYGRSPFAYWGQGTLVTVSA VL: ENVLTQSPAIMSASPGEKVTMTCSASSSVSYMHWYQQKSNTSPKLWIYDTSKLASGVPGRFSGSGSGNSYSLTISSAEAEDVATYYCFQGSGYPLTFGAGTKLELK | 8200 MFI | – | – | 1940 MFI | 401 MFI | 341 MFI | 451 MFI | 7020 MFI | 210 MFI | – | 227 MFI | – | – | 987 MFI | – | 443 MFI
3 | TM-44 (antibody, V domains shown, mouse IgG (hybridoma)) VH: EVQLVESGGGLVKPGGSLKLSCAASGFTFSDYGMHWVRQAPEKGLEWVAYISSGSSTIYYADTVKGRFTISRDNAKNTLFLQMTSLRSEDTAMYYCARNYGSPYAMDYWGQGTSVTVSS VL: not shown | 337 MFI | – | – | 309 MFI | 404 MFI | 522 MFI | 300 MFI | 512 MFI | 202 MFI | – | 168 MFI | – | – | 392 MFI | – | 466 MFI
4 | TM-42 (antibody, V domains shown) VH: QVQLQQSGAELAKPGASVKLSCKASGYTFTNYWMHWVKKRPGQGLEWIGYINPSSGYTKYNQKFKDKATLTADKSSNTAYMQLSSLTYEDSAVYYCTREGGSISDWYFDVWGTGTTVTVSS VL: DIVMTQAAPSLPVTPGESVSISCRSSKSLLHSNGNTYLYWFLQRPGQSPQLLIYRMSNLASGVPDRFSGSGSGTAFTLRISRVEAEDVGVYYCMQHLEYPYTFGGGTKLEIK | 58100 MFI | – | – | 16700 MFI | 1780 MFI | 326 MFI | 2070 MFI | 60100 MFI | 237 MFI | – | 215 MFI | – | – | 947 MFI | – | 3300 MFI
5 | TM-45 (antibody, V domains shown) VH: QVQLQQSGAELAKPGASVKLSCKASGYTFTNYWMHWVKKRPGQGLEWIGYINPSSGYTKYNQKFKDKATLTADKSSNTAYMQLSSLTYEDSAVYYCTREGGSISDWYFDVWGTGTTVTVSS VL: DIVMTQAAPSLPVTPGESVSISCRSSKSLLHSNGNTYLYWFLQRPGQSPQLLIYRMSNLASGVPDRFSGSGSGTAFTLRISRVEAEDVGVYYCMQHLEYPYTFGGGTKLEIK | 57600 MFI | – | – | 21300 MFI | 1860 MFI | 517 MFI | 2500 MFI | 58100 MFI | 187 MFI | – | 191 MFI | – | – | 819 MFI | – | 3240 MFI
6 | TM-37 (antibody, V domains shown) VH: QVQLQQSGAELAKPGASVKLSCKASGYTFTSYWMHWVKQRPGQGLEWIGYVNPSSGYTKNNQKFKDKVTLTADKSSSTAYMQLSSLTYEDSAVYYCAREGGSISDWYFDVWGTGTTVTVSS VL: DIVMTQAAPSVPVTPGESVSISCRSSKSLLHSNGNTYSYWFLQRPGQSPQLLIYRMSNLASGVPDRFSGSGSGTAFTLRISRVEAEDVGVYYCMQHLEYPYTFGGGTKLEIK | 58700 MFI | – | – | 29400 MFI | 2980 MFI | 408 MFI | 3920 MFI | 50500 MFI | 208 MFI | – | 254 MFI | – | – | 1040 MFI | – | 4210 MFI
7 | TM-50 (antibody, V domains shown, mouse IgG (hybridoma)) VH: QVQLKESGPVLVAPSQSLSITCTVSGFSLTNYGVHWVRQPPGKGLEWLGVIWAGGNTNYNSALMSRLSISKDNSKSQVFLKMNSLQTDDTAMYYCAKEAKLLRSYAMDYWGQGTLVTVSA VL: DVQMTQTTSSLSASLGDRVTISCRASQDINNYLYWYQQKPDGTVKLLIYYTSMLHSGVPSRFSGSGSGTDYSLTISNLEQEDIATYFCQQGSTLMYTFGGGTKLEIK | 314 MFI | – | – | 305 MFI | 381 MFI | 260 MFI | 294 MFI | 396 MFI | 257 MFI | – | 159 MFI | – | – | 580 MFI | – | 445 MFI
8 | TM-48 (antibody, V domains shown) VH: QVQLQQSGPELVKPGASVKLSCKASGYTFTSYDINWVKQRPGQGLEWIGWIYPRDGNTQYIEKLKGKATLTVDTSSSTAYMELHSLTSEDSAVYFCARWIFYAMDYWGQGTSVTVSS VL: DVLMTQTPLSLPVSLGNQASISCRSSQSIVHGNGNTYLEWYLQKPGQSPKLLIYKVSNRFSGVPDRFSGSGSGTDFTLKISRVEAEDLGVYYCFQGSHLPYTFGGGTKLEIK | 39900 MFI | – | – | 21600 MFI | 1580 MFI | 346 MFI | 4050 MFI | 38200 MFI | 292 MFI | – | 219 MFI | – | – | 677 MFI | – | 2450 MFI
9 | TM-49 (antibody, V domains shown, mouse IgG (hybridoma)) VH: QVQLQQPGAELVRPGSSVKLSCKASGYTFTRFWMHWVKQRPIQGLEWIGNIDPSDSQTHYNQKFKDKATLTVDKSSSTAYMQLSSLTSEDSAVYYCARLITVDYAMDYWGQGTSVTVSS VL: QIVLTQSPAIMSASPGEKVTISCSASSSVSYMYWYQQKPGSSPKPWIHRTSNLASGVPVRFSGSGSGTSYSLTISSMEAEDAATYYCQQYHSYPPTFGAGTKLELK | 15700 MFI | – | – | 3030 MFI | 473 MFI | 434 MFI | 756 MFI | 16500 MFI | 291 MFI | – | 187 MFI | – | – | 924 MFI | – | 613 MFI
